± gives the uncertainty stated by the source.
Test: amyloid nucleation score (Sup35N fusion, yeast selection) (log enrichment); library NNK2; higher = more nucleation; inactive = no reads after selection
In short: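 Output and input plasmid inserts were sequenced by Illumina after psi-negative yeast carrying Sup35N fused to peptides of 20 random codons had been induced 24 hours with 100 μM copper sulfate and grown 7 days at 30°C on medium lacking adenine and uracil. The nucleation score is the DiMSum log enrichment of output over input reads, centred on the mode score of non-aggregating sequences. Sequences with under 100 input reads were excluded.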

Compared with AVIMALNIGWRRRDSGWDGV, AVLLNA is lower in amyloid nucleation score: 5.9 ± 0.083 for the first, 0.181 ± 0.34 for the second.

Going from AVMTRFEDVYDCAVSTCKMG to AVPAVRVNGLHIRNCGYTGP, the amyloid nucleation score rises from -0.363 ± 1 to 1.22 ± 0.2.

AVQEEARLALSVEPWSSDSG and AVRELVYDLLASKNFWTSNA are within error of each other in amyloid nucleation score: 1.22 ± 0.28 for the first, 0.932 ± 0.2 for the second.

AVRVGGTGFRVRS and AVVGDMGIC are within error of each other in amyloid nucleation score: -0.121 ± 0.48 for the first, -0.511 ± 0.63 for the second.

Going from AVVVREAFLLFLKAIERAGI to AWANRMWWAR, the amyloid nucleation score rises from -1.31 ± 0.55 to 4.23 ± 0.074.

Compared with AWESNCIVRFKY, AWGRARNVRFYFVLRGESGL is lower in amyloid nucleation score: 4.36 ± 0.089 for the first, 2.79 ± 0.12 for the second.

Going from AWKAVY to AWKMVMRLDARPLARFWGDG, the amyloid nucleation score rises from -0.585 ± 0.63 to 5.34 ± 0.092.

Going from AWRMCTV to AWRYWFHTLSLTLKNWTSVF, the amyloid nucleation score rises from 0.302 ± 0.33 to 5.14 ± 0.087.

Going from AYDRIY to AYILAVVCPVVRKIGSQYDE, the amyloid nucleation score rises from 0.367 ± 0.74 to 1.87 ± 0.15.

AYKTSHVWSLYRVHGV and AYLFHLFIIS are within error of each other in amyloid nucleation score: 0.41 ± 0.25 for the first, -0.017 ± 0.48 for the second.

Going from AYPVES to AYSGIFTRNAEVYSDIYLQ, the amyloid nucleation score falls from 1.19 ± 0.23 to -0.499 ± 0.76.

AYYYWLGG and CAFYDYGKALPRGNFRLSKM are within error of each other in amyloid nucleation score: -0.381 ± 1.1 for the first, -0.208 ± 1 for the second.

Compared with CAIFVRERW, CAKLGTSSRFIFE is lower in amyloid nucleation score: 5.03 ± 0.089 for the first, 0.073 ± 1.1 for the second.

Compared with CARVMLFIMSEMIEFTFYGL, CASVSQGPKQLLPPNVTGLY is lower in amyloid nucleation score: 2.89 ± 0.14 for the first, -0.176 ± 0.45 for the second.

Going from CCFGVQVEGT to CCISMDVLWRLSEQP, the amyloid nucleation score rises from -0.461 ± 0.79 to 6.385 ± 0.05.

CCWVSLMRGNRLSTDSSNTL and CDFAIPYYNGPYSQKFLMTS are within error of each other in amyloid nucleation score: -0.087 ± 0.37 for the first, -0.321 ± 0.8 for the second.

First: CDHQRLMTYLVPAGYMPDTM
Second: CDPVSNFCIMLMCFIREYGR
The amyloid nucleation score of the first is lower: -0.201 ± 0.62 for the first, 1.99 ± 0.087 for the second.

First: CDTYNFCIL
Second: CDVFMQAKIASVMGYDVQRA
The amyloid nucleation score of the first is higher: 6.124 ± 0.035 for the first, -0.225 ± 0.41 for the second.

First: CEFALYAFWCCIYLRFNKYS
Second: CEGCHATKYRVRSWS
The amyloid nucleation score of the first is lower: -0.606 ± 0.44 for the first, 1.01 ± 0.31 for the second.

Compared with CEGNGVFYGLPYSGSDIPNR, CESHVSRWYSVS is higher in amyloid nucleation score: -0.719 ± 0.61 for the first, 0.505 ± 0.27 for the second.

CEVFYSVGRSK and CEVLKHSCTDSEMHAKADGV are within error of each other in amyloid nucleation score: -0.633 ± 1.1 for the first, -0.307 ± 0.23 for the second.

CFANRNRFFMSLSEHHTFDG and CFCQTCSLSRAKSMEEGCLR are within error of each other in amyloid nucleation score: -0.798 ± 1.1 for the first, -1.08 ± 0.54 for the second.

Going from CFEMV to CFFTSYTRA, the amyloid nucleation score rises from -0.886 ± 0.21 to -0.114 ± 0.55.

CFGFYGAIVD and CFGMLS are within error of each other in amyloid nucleation score: 0.023 ± 0.39 for the first, -0.679 ± 1.1 for the second.

Going from CFGRGLCVSIGVVRCTGGPC to CFIRFSRMGLFLFCLPKNLQ, the amyloid nucleation score falls from 0.119 ± 0.62 to -1.59 ± 0.53.

Compared with CFISQILEFCCSFIFSRDFF, CFMLVFSRTCVSMYTIVNPS is higher in amyloid nucleation score: 0.286 ± 0.27 for the first, 4.59 ± 0.11 for the second.

First: CFSCVFIMDCCRH
Second: CFSHYHDSFLPGWYYSGNYV
The amyloid nucleation score of the first is higher: 7.954 ± 0.062 for the first, -0.788 ± 0.4 for the second.

CFSRMRRTEW and CFTNIYRKGMMCYGPFTAMT are within error of each other in amyloid nucleation score: -0.142 ± 0.23 for the first, -0.214 ± 1.1 for the second.

Going from CFVNGLRNSHLGNLVWVPIG to CFVVRE, the amyloid nucleation score rises from -1 ± 0.39 to 0.404 ± 0.46.

CGFFKVRENGFCGFKKMSFS and CGILYSFDGRFVYWSSYGSS are within error of each other in amyloid nucleation score: -1.12 ± 1.1 for the first, -0.353 ± 0.79 for the second.

CGNPFGLSTHFNYLRRMPWE and CGSQKWVQYKIMKWYK are within error of each other in amyloid nucleation score: 0.116 ± 0.25 for the first, 0.627 ± 0.57 for the second.

Compared with CGVFCLV, CGVFSLQCYHVDESTRCREF is higher in amyloid nucleation score: 1.44 ± 0.41 for the first, 6.401 ± 0.061 for the second.

Going from CGVVSLCSGWSLMYDRGWWG to CGYVEV, the amyloid nucleation score falls from 10.2 ± 0.054 to 0.244 ± 0.65.

CIMMYVT and CISSKHISVGVTDNLVVV are within error of each other in amyloid nucleation score: 0.259 ± 0.17 for the first, 0.436 ± 0.8 for the second.

CKALCIKIWVERVTC and CKDTTKPGYFGFDIFPNVYE are within error of each other in amyloid nucleation score: 2.31 ± 0.16 for the first, 2.37 ± 0.15 for the second.

CKKLMLILEFWMCMLSLNIA and CKLTATCQSQMTEIGLGSFA are within error of each other in amyloid nucleation score: 3.58 ± 0.072 for the first, 3.62 ± 0.046 for the second.

Compared with CKTLVSGGL, CLAVIQWFPCIVDMGLECGF is higher in amyloid nucleation score: -0.344 ± 0.41 for the first, 2.96 ± 0.049 for the second.

Compared with CLCGPRIGLSVFNYVYFGMG, CLDLLWHSWASYLLAGALWW is lower in amyloid nucleation score: 4.2 ± 0.046 for the first, 0.94 ± 0.74 for the second.

Compared with CLEMFLKLCSLECARMKLPR, CLFWLHQHMQYFHVMGLSPT is lower in amyloid nucleation score: 5.673 ± 0.04 for the first, 2.21 ± 0.22 for the second.

CLHCSRFSKTLYRKFRNREN and CLKPFRHTFEFLYQVDFTEV are within error of each other in amyloid nucleation score: -0.33 ± 0.76 for the first, -1.56 ± 1.1 for the second.

With CDILYLNMFAIFDFFDPVKL the amyloid nucleation score was “inactive”.
In the case of CFESHWCRYPLDGRLGHKEF, the amyloid nucleation score is reported as “inactive”.
With CFNSTDN the amyloid nucleation score was “inactive”.
For CFRKLQYISFYYTTWVILDA, the amyloid nucleation score was “inactive”.
In the case of CFRLD, the amyloid nucleation score is reported as “inactive”.
With CKENFKIFFDFYYGMTSVLS the amyloid nucleation score was “inactive”.
In the case of CKLHRVYAIFFSMD, the amyloid nucleation score is reported as “inactive”.

Reference: the supplement of paper PMC12042874
